The target of assay [1] is T1, mouse MuSK, endogenous (C2C12 myotubes; neuromuscular synapses of mice) (mouse, UniProt Q61006 22-868).
T1 sequence (looked up): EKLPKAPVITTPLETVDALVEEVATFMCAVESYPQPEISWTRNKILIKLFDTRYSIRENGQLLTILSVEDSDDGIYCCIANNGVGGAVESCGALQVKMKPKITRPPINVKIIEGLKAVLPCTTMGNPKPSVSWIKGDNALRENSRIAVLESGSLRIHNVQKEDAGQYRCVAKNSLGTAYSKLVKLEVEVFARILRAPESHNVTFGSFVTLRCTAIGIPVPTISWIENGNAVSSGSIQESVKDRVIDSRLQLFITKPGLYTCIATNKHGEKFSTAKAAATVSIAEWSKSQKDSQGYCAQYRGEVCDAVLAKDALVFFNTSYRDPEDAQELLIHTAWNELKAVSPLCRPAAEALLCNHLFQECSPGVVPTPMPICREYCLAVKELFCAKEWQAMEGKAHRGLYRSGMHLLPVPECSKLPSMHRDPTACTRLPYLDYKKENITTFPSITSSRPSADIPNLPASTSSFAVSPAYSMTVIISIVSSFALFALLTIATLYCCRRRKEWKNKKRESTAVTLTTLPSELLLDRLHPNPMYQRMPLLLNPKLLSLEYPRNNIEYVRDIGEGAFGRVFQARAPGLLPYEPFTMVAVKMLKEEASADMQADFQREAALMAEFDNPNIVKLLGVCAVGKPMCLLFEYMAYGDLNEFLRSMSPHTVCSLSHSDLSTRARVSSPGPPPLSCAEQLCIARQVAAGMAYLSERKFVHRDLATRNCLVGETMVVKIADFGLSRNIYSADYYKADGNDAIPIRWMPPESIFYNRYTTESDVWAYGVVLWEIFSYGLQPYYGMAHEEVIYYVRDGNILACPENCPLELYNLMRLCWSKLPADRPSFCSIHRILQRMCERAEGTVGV
Nature of the assay: cell-based or functional assay.

In a further assay the target is T2, mouse MuSK (mouse, UniProt Q61006 22-494, limits assumed).
T2 construct: Coated on ELISA plates or on the Biacore chip; also called full length mouse MuSK; mouse MuSK (in house produced in HEK293 cells)
T2 sequence (looked up): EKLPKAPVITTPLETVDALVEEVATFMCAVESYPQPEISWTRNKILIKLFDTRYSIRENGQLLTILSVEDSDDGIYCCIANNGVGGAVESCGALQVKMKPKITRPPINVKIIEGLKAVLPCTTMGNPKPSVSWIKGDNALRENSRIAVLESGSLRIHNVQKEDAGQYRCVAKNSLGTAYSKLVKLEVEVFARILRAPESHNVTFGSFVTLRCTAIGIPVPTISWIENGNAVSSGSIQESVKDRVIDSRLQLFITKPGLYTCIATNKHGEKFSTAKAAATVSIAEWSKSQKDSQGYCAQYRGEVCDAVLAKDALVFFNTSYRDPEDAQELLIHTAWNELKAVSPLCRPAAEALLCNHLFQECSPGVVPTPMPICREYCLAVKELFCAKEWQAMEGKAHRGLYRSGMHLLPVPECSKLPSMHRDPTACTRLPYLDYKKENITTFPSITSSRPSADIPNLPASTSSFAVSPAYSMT
The assay can be described thus: Biacore, MuSK on chip (200RU), 66.7 nM mAb, dissociation pH 7.4. The essentials:
(§1)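 Sensor chip coated in parallel with cynomolgus monkey, rat and mouse MuSK. Antibody applied at a single concentration; association and dissociation kinetic parameters calculated from the sensorgrams.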

A further assay has as its target T3, rat MuSK (rat, UniProt Q62838 22-494, limits assumed).
T3 construct: Coated on Biacore chip (200RU) or ELISA plate
T3 sequence (looked up): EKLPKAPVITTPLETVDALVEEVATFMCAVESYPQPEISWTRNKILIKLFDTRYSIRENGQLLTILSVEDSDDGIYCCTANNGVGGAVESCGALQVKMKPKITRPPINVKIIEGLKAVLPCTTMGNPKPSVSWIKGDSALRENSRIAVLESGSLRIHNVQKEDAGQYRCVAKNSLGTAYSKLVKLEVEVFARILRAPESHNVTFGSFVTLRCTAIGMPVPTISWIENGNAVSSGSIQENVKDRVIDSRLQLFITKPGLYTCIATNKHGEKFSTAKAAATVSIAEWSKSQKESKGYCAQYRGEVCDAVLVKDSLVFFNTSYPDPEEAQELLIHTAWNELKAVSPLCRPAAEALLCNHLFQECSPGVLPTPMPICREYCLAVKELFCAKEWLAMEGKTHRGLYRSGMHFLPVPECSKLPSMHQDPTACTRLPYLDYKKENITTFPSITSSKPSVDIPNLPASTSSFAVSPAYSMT
The description is as above. The essentials:
as §1

In the next assay the target is cynomolgus monkey MuSK (cynomolgus monkey, UniProt A0A2K5USF6 24-487). Described as above. The essentials: as §1
Chain of cynomolgus monkey MuSK (A0A2K5USF6 entry or part of it): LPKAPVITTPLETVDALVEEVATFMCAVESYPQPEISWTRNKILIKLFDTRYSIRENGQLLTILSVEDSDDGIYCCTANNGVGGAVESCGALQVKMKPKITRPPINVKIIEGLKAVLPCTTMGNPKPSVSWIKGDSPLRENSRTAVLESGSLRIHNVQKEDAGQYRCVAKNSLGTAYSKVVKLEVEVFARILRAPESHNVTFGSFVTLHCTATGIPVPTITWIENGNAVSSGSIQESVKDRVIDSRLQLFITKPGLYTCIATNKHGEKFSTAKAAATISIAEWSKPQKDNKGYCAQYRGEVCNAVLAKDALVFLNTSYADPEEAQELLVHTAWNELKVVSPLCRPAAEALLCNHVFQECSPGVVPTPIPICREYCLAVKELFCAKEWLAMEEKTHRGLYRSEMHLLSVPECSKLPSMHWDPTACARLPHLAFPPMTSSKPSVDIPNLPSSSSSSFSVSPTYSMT

B1: 3B2 (antibody, V domains shown)
VH: ELQLVESGGGLVQPGGSLRLSCAASGFTFDDYGMSWVRQAPGKGLEWVSAIPWNGGSTYYKESVKGRFTISRDNAKKTLYLQMNSLKSEDTAVYYCAKRSGRIAFGALDAWGQGTLVTVSS
VL: QAVVTQEPSLSVSPGGTVTLTCGLSSGSVTSSNYPDWYQQTPGQAPRGLIYSTDSRHSGVPSRFSGSISGNKAALTITGAQSEDEADYYCGLYMYSGSKNYVFGGGTKLTVL
notes: human IgG1 with the LALA mutations (L234A, L235A); produced in HEK293 cells; also called 3B2 mAb; parental 3B2 Ab
Regarding B1, in assay [1], the “% Phosphorylation Induced in C2C12 Mouse Assay, Assay 1” value is 74 % versus agrin; the “% Phosphorylation Induced in C2C12 Mouse Assay, Assay 2” value came out at 94 % versus agrin; the “% Phosphorylation Induced in C2C12 Mouse Assay, Assay 3” value turned out to be 64 % versus agrin; the “% Phosphorylation Induced in C2C12 Mouse Assay, Average” value amounted to 77 % versus agrin. In the assay with mouse MuSK, this molecule had an R0 of 195 RU, a dissociation rate constant (koff) of 0.00061 s⁻¹ and a kon of 1.13e+06 M⁻¹ s⁻¹. In the assay with rat MuSK, this molecule showed an R0 of 162 RU, an off-rate (koff) of 0.00186 s⁻¹ and a kon of 1.14e+06 M⁻¹ s⁻¹. In the assay with cynomolgus monkey MuSK, this molecule returned an R0 of 143 RU, a koff of 0.00097 s⁻¹ and a kon of 790000 M⁻¹ s⁻¹.

For the origin of these results see patent US20230151091A1 (NEW YORK UNIVERSITY, published 2023).
